Laboratory results from the supplement of paper PMC12636428.

Tested on: Saccharomyces cerevisiae
Test: transcriptional activation domain activity (GFP:mCherry ratio, weighted mean of sorted bins, harmonized to initial dataset scale) (arbitrary fluorescence ratio units); higher = stronger transcriptional activation
Conditions: beta-estradiol 1 µM; induction time 4 h
How it was run: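 Protein tiles carrying barcodes and fused to an estradiol-inducible synthetic transcription factor were placed at the URA3 locus of yeast diploids with a GFP reporter. Following 4 hours at 30 °C in SC with 1 uM beta-estradiol, cells were sorted into 8 GFP:mCherry bins, barcodes were sequenced, and tiles with fewer than 50 reads were discarded. Activation activity is given as the read-weighted mean of bin median fluorescence, averaged across barcodes and linearly mapped to the initial dataset scale.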

Sequence	transcriptional activation domain activity
LSQNYLLTWDDSGDWLSLADAGVIAALLFRNNLSETWLDEFASWCRLLWYLRQ	58600
SSTNPGTESAKPEKPKRAPRQKASSKKADSKPKRTTARSKKAVKLAAEKLLSP	15600
WLAHSKKKDCDVCKHPYSFNKVYSPDMPARLPPVLLLRHLAKQLFFTVLFSIR	76900
FPHNETLPALGQDGINEDNLNETIDNMLIFDFLDDGSENNQVKYSRIIPPDIR	89000
MALASPVFFFFYLYFIILLFGVGIYLFTFVMSYHTMVMQIIHVSCYNHRYIPV	47200
MYNTVLAWYCFIFAHVYSFLHCCFYYWFFLAFWLFGLLTYLSFVVGGVFFMPR	53300
ETIHGPAPATSFDDTNFTWQLFDESPGFDPLAQLQSFSDFGLSGHDLLFGFMD	123000
SASASASGATASASASAAAGAGGKGGFGGKGGFGGGFGGKGQGGKGGKGGAAA	34000
STVHNLVELMPLQQLCGFCCFSMRFVVFLDLLSTVVAPVIVVYIGYLIYILAY	56100
DQSEISRTTSRSDTPLRDEDGLDFWETLRSLATTNPNPPVEKSAENDGAKPQV	41100
SLNVLACGAIILFPRLAFLVVNNNAIVLGLRVMFVKFVFVCLLALWCFAGFLL	69300
LGLTNLQLGDEMIGLGAVILIYVIARLILILLPLVALRSLPSGVFVDVNWSRY	57800
MLLTLLWLFFFFFFFFFPNIPPGVLFTFPSFDLLFASWFISSICASPFFAQFP	56100
DFWFFLFVYYGFYNLVGLLWITKVFNMYGLNWWPVRLGFPATFTLFNCLSLAC	65500
MITRRTGGNSGNWVPSIRVQEGVLTKGFRPINMRSELVRLHEVVILVVGMEMD	47100
GGEGEKKKREGKEGREKRGGRRKKGRGKKGRGREGRKKGKRKREGKGKKGEKR	24600
KHRSSINTVLVVGGDDKVVKQAGDALKGKLGVKGGGKGPRWSGKFIGVWKAAR	50100
MLFIPFCVLFFVWLWGLINYGAFVDPCFLSFYVLLSTLLQLPSSSFLSFFALF	54400
LSLYRLSFPASFSLFSSFPSCLVAFPFPLPLPLPLPPSCSPFLLLLLLLLFFS	51900
YLMVLYYTSRPVLFLVCAGNELCFIFIYCLGWFSHWLLWLGLLISIPVCLFKQ	71800
LVLYHDKFTTYLFAVFFFSLLPHVISSLFFFFFFFFWFLIKCIAMTPQFLFFF	34200

Sequence	transcriptional activation domain activity
LIHLMNIAQVVILFVHRFIFGVIPLFEIKTCSFWPLLVSLWHLNYIIIYSIMF	51600
MFTGTLLVVFMHYGWSFFLNCCLGCLVISFCFWYVKLWLLIGRCILVLCIVAR	69000
IRYLDHTQLLGEPLLKRTFMGGHIFIPTLIDTALCQSYFSSHILDILRHLTFS	63300
AFVNFIYVEDLLNFARTKLGVKWYFSHNLCIYVITHLLHRNMFSSEKVLQMSY	83400
AVGLPNPHAHTLLQSLYYLRSITFSLLRLKMEQRLSLLIPSYLTIWKLDRKAL	68400
KVNQRKENKNNKNDEDNDDDNDDEEGKEKDKEEEKKDKKKKNKKCKHKKNKNK	21700
TLRVDSLTGMIRIIRHVDFDGLPRPSGSGVITPFGIVFGGVCRGYWLWLWKVD	35800
MPSITLAWPDRAYFYSLLVVSLLSSKLLHVFSHLTAIPIFLFLLYFPTFLFLD	72500
MVHIVVVLCIVFCLLLCFKRRAQQLSSYCHASLRYFNLPPNFHQYYEQRFILV	78400
MLRVPGSWFGMLFMGLLVSRERLSLLASLLFFVQVIFIRLLVVFWMICGGQIP	31400
EQAAKKKTAAPAAAPKAEAAKAPEVKAEAAAPAPEPEKPAAGGKKKKLNPALL	52300
GWFYFNVLRHAELMVFTIFSPEHVTIWALRQHSVARLIRALCPEKLSMSHGFL	32400
LVLRSVILSLMVFLVIFCSEYFLFPFCHSICCYGYIYILIDSWVSFSLLVFFS	65700
FDAALQHCRHGIMILNNSSRPEWMCQYLVPIFRRLSITPFFFGGVRPTRLPQL	68800
MGFDQALGLKLSPSSSGLLSTNESNAIEQFLDNLISQDMMSSNASMNSESHLH	76500
RHAIVVKRVIRMSGKGKMSRMSALVVVGDGKGMVGFGEAKDPNAGKAGRKAFQ	32800
FFFVNGMWYNMAYIFGSWKLGWWELGAKIFVFQEVYETLLYLLTPFILPISFY	48600
TDDAKAKRKKEKKEKKEKSRSKKSADEGSDNEDGTSEERSKKRKSKSKSKSRS	30700
SQNSNDTSSKGIVDPFVEQNNDITTALLNNELFQGPSLSDEVTDWFGASEDIG	91000
ILLYHPNFLLIAISILYIIWCFMVLIMFCVVLPTAFLLLRAALFYPPHGREFI	25900
EKRGLDTKNIYVGAEPFDAELRQRLESEQSFSFRSTDIIHFVAMLLIRYLFDL	59300

Sequence	transcriptional activation domain activity
WGLIIGLVGLNAALIYIGWRYYEVYYFLLVLLSSNTILQTFMCFCIMLHWFCT	40400
MLPQFQEGNCEDLWNVLVWCTIPIPFDDCEAYPCDYQQNPYPNHINFWFYLFW	55600
HNILHLFSICVFRYHMLYYDEVRYIWKRWRRRSTYWFFLNRYFNFFGNGAITV	64600
MESRARISTSVILYLCARLRSIAVITYMIVVRSLSTFVYLAQRFFILLWPIIW	55600
MSVVKEENPDTPGGTTVQDVDNRLRQLIQACSPFHMLKNHNLLVLYLLIVPSA	53700
MLTWFFSYRLELLPFFYIIFSPIVFLLFSIFLLVLLRSFVCRLICFCLFLQSV	56500
PWTFDLGLFGLGLFGLFGLFGLFGLFGLGPFGLGLFGPLDFLALDFLDLWTFW	18400
GVENQVDFHHNEKHKLMLLKALGYRVLADINKVSVVMPAALVGTVVLTLRGRG	44500
ISLGDFIVTLNYLFCYFLMQAPSLKLKPTSLFFFFLCIWLDFVLCLLILLRVA	46400
SFALCNRIVVGCAILRTGKILKSWHVARVSHFSTFVFNGVIHGSIPNMILTRK	55100
KVKAEGEASDGGAPAPDAEGGAADDSAAGKKAARVRKPKAPRAPRPAGEDPVG	34200
ANGSSATTPEPDGKTAAGTAAVPKRKQTEKKANGPTKKQKTGSPKKGGRKGAS	27700
CMELMLHYIYVVAISNSSPDWSAYTPFQLSMLGYFNLHHIWLKLLIPWRFFRL	80500
MFTRYLLLLLFAPLIYILGFFAASLSTHQPDYFYTWTRDSALVAQTNDTLLHD	30900
MCWACRILAAFPPPLPVFWFWFWFWFWFWFWFWLTAGWLAGFGFFVFAFCFLY	32500
RRTSSTSSPSRSSSGTRARARSRSSRSTRSAAACSPSTRRAPRPTARPSSRPS	27400
MVYCISFCLALFESLLYSIVADTNILIHYFLFFLLLFCQFVYFLNNTFFIFLS	51800
TPVYIGPLDGGAGDAQHGRKGGESRFQITPRKTVRLGEDGKGRKVSVEQRIVC	49400
SAEFRANEFARHPLLDALLLSLMVDGSSTLLEIEVATLVCLLRQFAIHAPDTL	51800
MIELCLWVFSLLVLPRFGLRNFEVRINVALRELLLTITWGRLAIHVSLLRLVV	49000
DLFMTLGWISGFMAELIAVQGACSLGWHPGCTNFNWLMAWLFFLFLSWGAGFF	66400

Sequence	transcriptional activation domain activity
KGGGAGGGKRAKKEESSDDEAAKPLAKRGKGTANGRANGKARASSAAPVDNQK	44600
LAGGLGFFLWLLPTWWVLFACVGFLVWLFWSPVVLVASVGFVAWKLGYWWVLW	24100
LFFIAVSQLGFVCSYLVFISGNLVNVVDVLSSCAAHLDQKYYIWIPLILVLPL	59900
VRVVVANMFGLVIIFLFFFMYFDDFSKEILNAVQVSQIWMYLHFPLHLCQVAF	50400
HGSTLTTIMIQVSEVMILPSFFQELLDTIRTRCPRVVNFMIWFQVWNWMMVPV	73300
AKDEGEEEEDGSTSLNGTGKGTGTGKTHRGARGSKKGKKDGNETTSKAKGDGV	29500
MFTLPSYSLFLSVHSFLIYPLPSCSFFFRISSPSIFTLSSCLSFPPVCPSLLF	71700
SGLAFRNFWIRRISFAGHLRNSNSALTPSRYFRLMSMAVVQMFWGLVVTSLYT	46800
EMAVACISVLILIGYNTIILYVYPLYPTRSPLRLSETYINHLLSNFLWWFIMF	59100
KAAPEDKEPEPVAVSYKVNDTVMAKWVSGDKGYYPARITSVTGSSTDPIYVVK	19800
STDALLARLVGHLHINPVSQKLVVAFDKIATCLQEVRACIVQRILPFAQRYKQ	62400
MDILDIFFLFYSLLVSFLFFSLLIPPLFLSSFISISFYFFDGVLCVLLGFFFR	61500
SLTHGMPQDLRRAVRNGVRLASAEDQERYFTFILHEAVRLYGVLMMRIVYRLF	55300
SFVAYFSALWRGKQHRMTGYPVYDFFMGAELNPRMFGILDFKMFFEVRMPWYI	51000
FLSCMPFVFLTVVCSTLCMYFAKVFPTNNPVFLPLLLLHTFIHILSVVSFGLL	33300
YRSRGIDEGRGKREAGRERERAERRSTKEAEKGGEGRWEGRSARRKEAGGKKG	56700
MMKTLAQMYPLASFSLFQGLKFFILLALMNECLLLCTALRRWLICTQLPGIYF	49200
MIASSPGGILCGILLFLLFFLLPCDLPLPFVSCFFSLFSPFLMFLFFLPYFFS	40700
KFIWRSSWSLPKIMYLLIRYLGLVCLLYYAMNAVTVQKSIAVCQLYIISMHTV	67000
MIGVVCALYLFFFPSFFLLFFFSTLLDDDTLIIYKFFLLWESWFVAFILFFYL	24900
